# Reference: US7125658B2, “Small protein that interacts with a ribonucleotide reductase subunit and uses thereof” (The Trustees of Columbia University in the City of New York, priority 1998, dated 2006)
# B1: Recombinant yeast Sml1 protein (other)
# chain: MQNSQDYFYAQNRCQQQQAPSTLRTVTMAEFRRVPLPPMAEVPMLSTQNSMGSSASASASSLEMWEKDLEERLNSIDHDMNNNKFGSGELKSMFNQGKVEEMDF
# notes: Immobilized on the BIAcore chip in the biosensor experiments; also called YML058W product
# B2: Sml1p: 104 amino acid yeast protein encoded by YML058w (SML1) that binds Rnr1 and inhibits ribonucleotide reductase; recombinant, expressed in E. coli (protein)
# chain: B1 chain
# Columns and labels:
# [1] = target: T1, Recombinant yeast Rnr1 protein (large subunit of ribonucleotide reductase) (yeast (Saccharomyces cerevisiae), UniProt P21524 1-888); assay: cell-based or functional assay
# T1 sequence (looked up): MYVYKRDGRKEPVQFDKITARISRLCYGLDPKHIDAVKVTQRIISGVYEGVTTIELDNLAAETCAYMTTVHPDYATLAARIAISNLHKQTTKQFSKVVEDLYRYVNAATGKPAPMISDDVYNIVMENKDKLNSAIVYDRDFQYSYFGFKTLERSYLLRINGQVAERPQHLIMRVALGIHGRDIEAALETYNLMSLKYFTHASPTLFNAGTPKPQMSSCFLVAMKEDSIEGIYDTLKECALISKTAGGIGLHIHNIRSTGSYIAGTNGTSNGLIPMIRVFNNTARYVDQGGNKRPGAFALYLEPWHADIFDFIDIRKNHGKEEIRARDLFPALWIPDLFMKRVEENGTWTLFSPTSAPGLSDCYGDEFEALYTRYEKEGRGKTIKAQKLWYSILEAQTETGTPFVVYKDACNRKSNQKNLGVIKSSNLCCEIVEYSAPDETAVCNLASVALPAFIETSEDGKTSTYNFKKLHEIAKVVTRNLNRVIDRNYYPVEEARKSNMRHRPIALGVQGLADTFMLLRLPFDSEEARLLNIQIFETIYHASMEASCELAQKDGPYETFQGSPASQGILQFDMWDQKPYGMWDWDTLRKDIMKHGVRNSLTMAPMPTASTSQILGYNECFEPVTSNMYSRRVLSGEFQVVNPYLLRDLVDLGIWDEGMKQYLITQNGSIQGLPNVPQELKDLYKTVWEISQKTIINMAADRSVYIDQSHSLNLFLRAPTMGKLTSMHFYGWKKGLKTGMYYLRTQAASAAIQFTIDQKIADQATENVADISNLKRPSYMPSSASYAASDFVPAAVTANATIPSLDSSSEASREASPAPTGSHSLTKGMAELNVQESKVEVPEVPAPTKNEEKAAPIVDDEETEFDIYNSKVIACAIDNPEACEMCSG
# [2] = target: T1, Recombinant yeast Rnr1 protein (large …); assay: BIAcore SPR, BIAevaluation software, lower curves of FIG. 12A; kinetic fit (BIAevaluation), lower curves of FIG. 12A
# Protocol: In this figure, the bulk effect response of around 60 RU has been subtracted.
# BIAcore biosensor analysis. The interaction between Sml1p and either yeast Rnr1p or mouse R1 protein was studied by biosensor analysis using the BIAcore method (Biacore AB). The Sml1 protein was prepared in 10 mM sodium acetate, pH 5.2, at a concentration of 0.44 mg/ml; it was then immobilized on the dextran layer of the sensor chip as described previously for the mouse R2 protein (17). The ligand proteins were equilibrated with running buffer (10 mM Hepes-KOH, pH 7.4, 200 mM potassium acetate, 1 mM EDTA, 5 mM magnesium acetate and 0.05% Surfactant P20 (BIAcore). The interactions were studied at a constant temperature of 22° C. and a constant flow of 5 μl/min. Kinetics for the interaction of Sml1p with yeast Rnr1p was determined by allowing the immobilized Sml1p to interact with increasing concentrations of Rnr1p (18). The resonance unit (RU) is proportional to the mass, and 1 RU corresponds to a surface concentration of 1 pg of protein/mm² of the 100 nm thick dextran layer (19).
# In control experiments, where the same series of Rnr1p solutions passed a sensor chip without immobilized Sml1p, a "bulk effect" gave a response of only about 60 RU. […] Calculating the equilibrium dissociation constant from these rate constants gave a K_0 of about 0.25 µM, which is close to the directly determined K_0.
# yeast RNR = target: T2, yeast RNR (Saccharomyces cerevisiae, UniProt P21524); assay: in vitro yeast ribonucleotide reductase CDP reduction assay; format: biochemical
# T2 construct: made in house; host or cells: E. coli BL21 (DE3), pET3a
# T2 sequence (P21524 1-888): T1 sequence (looked up)
# Protocol: FIG. 9 Inhibition of yeast RNR by Sml1p. A series of tubes containing yeast RNR ([…]) were incubated at 30° C. for 30 min in a final volume of 50 μl: 25 nmol of [^3H]CDP (specific activity 37000 cpm/nmol), 2 μmol of Tris-HCl, pH 7.6, 0.125 μmol of ATP, 0.32 μmol of MgCl^2, 0.5 μmol of dithiothreitol, 5 μmol of KCl and 1 nmol of FeCl3. In addition, the tubes contained increasing amounts of Sml1p. After incubation, the samples were processed as described earlier to obtain the amount of dCDP formed (22).
# FIG. 10 Inhibition of yeast RNR by nonapeptides corresponding to the C terminal ends of Sml1p, Rnr2p or Rnr4p. […] 9 in the presence of increasing amounts of nonapeptide. Sml1 peptide, ã; Rnr2 peptide, o; Rnr4 peptide, x.
# Inhibition of yeast ribonucleotide reductase by the Sml1 protein. Recombinant yeast ribonucleotide reductase was assayed for activity using a CDP reduction assay, with ATP as a positive effector in the presence of increasing amounts of Sml1 protein (FIG. 9). A molar ratio of 1:1 between Rnr1p monomer (MW 100000) and Sml1p (MW 11800) gave about 50% inhibition.
# Inhibition of yeast ribonucleotide reductase by nonapeptides corresponding to the C-terminal ends of Sml1p, Rnr2p or Rnr4p. […] Since such peptides are known to inhibit RNR activity by binding to the R1 protein and preventing R1/R2 interaction, we wanted to study the influence of a C-terminal nonapeptide of Sml1p on yeast RNR activity.
Molecule,"efficiency in inhibiting yeast RNR activity relative to the Sml1p C terminal nonapeptide, molar basis [1] [times]",koff [2] [s⁻¹],kon [2] [M⁻¹ s⁻¹],"efficiency in inhibiting yeast RNR activity relative to its C terminal nonapeptide, on a molar basis (yeast RNR)","type of inhibition versus Rnr2p/Rnr4p heterodimer (yeast RNR; Rnr2p/Rnr4p 1 to 32 μg, Rnr1p 2 μg, Sml1p 0, 0.2 and 2 μg)","inhibition of yeast RNR (yeast RNR; molar ratio of 1:1 between Rnr1p monomer and Sml1p, CDP reduction, ATP as positive effector)"
B1,~200,0.04,~153000,–,–,–
B2,–,–,–,about 200 times,noncompetitive inhibition,about 50%
